Values of other authors in publication PMC2706832.
pKd, pKi: −log10 of the molar value.

Assays:
CCL7 (Homo sapiens) = CCL7 (Homo sapiens) (UniProt P80098)
[1] = molecular target: CCL14 9-74 (Homo sapiens) (UniProt Q16627); assay: competition with CCL5
Sequence of CCL14 9-74 (Homo sapiens) (Q16627 9-74): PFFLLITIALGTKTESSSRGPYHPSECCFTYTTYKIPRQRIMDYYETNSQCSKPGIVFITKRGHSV

Sequence of CCR1 (P32246 whole entry): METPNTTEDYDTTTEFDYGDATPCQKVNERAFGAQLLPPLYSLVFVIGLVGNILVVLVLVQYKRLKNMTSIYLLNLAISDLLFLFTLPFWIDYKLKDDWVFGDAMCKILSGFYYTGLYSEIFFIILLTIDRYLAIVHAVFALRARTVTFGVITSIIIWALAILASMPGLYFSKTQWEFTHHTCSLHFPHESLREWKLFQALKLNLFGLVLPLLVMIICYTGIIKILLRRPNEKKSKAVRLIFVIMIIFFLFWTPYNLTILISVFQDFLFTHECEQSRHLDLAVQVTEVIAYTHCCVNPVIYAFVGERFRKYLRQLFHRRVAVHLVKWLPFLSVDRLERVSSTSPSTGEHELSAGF
Sequence of CCL7 (Homo sapiens) (P80098 24-99): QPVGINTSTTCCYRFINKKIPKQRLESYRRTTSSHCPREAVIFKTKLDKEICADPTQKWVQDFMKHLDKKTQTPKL

Substance: CCR1 (from UniProt P32246)
- pKd (CCL7 (Homo sapiens)): 9.00
- pKi [1]: 10.64
